Measurements taken from patent US20240016943.

Legend:
B11-Z4 [1] = biological target: B11-Z4 (UniProt P61244); experiment: competition; settings: vs MAX
BMAD-Z = BMAD-Z (UniProt P61244); experiment: competition; settings: MAX competition at 500 nM
BMADs-Z [2] = biological target: BMADs-Z (UniProt P61244); experiment: competition; settings: MAX competition at 500 nM
BLI1-ZM4 [3] = biological target: BLI1-ZM4 (UniProt P61244); experiment: competition; settings: vs MAX
BMYC-Z = BMYC-Z (UniProt P61244); experiment: competition; settings: MAX competition at 500 nM
BLI1s-Z [4] = biological target: BLI1s-Z (UniProt P61244); experiment: competition; settings: MAX competition at 500 nM
B11-ZM4 [5] = experiment: competition; settings: vs MAX
BLI1-ZL1 [6] = biological target: T1, BLI1-ZL1 (UniProt P61244+P61244); experiment: competition; settings: vs MAX
STR116 (B11-Z6) [7] = biological target: STR116 (B11-Z6) (UniProt P61244); experiment: competition; settings: vs MAX/MAX 30 nM; Table 15 gives 65 for B11-Z6 (conflict); vs MYC/MAX 1.0 uM
B-ZM4 [8] = biological target: B-ZM4 (UniProt P61244); experiment: competition; settings: MAX competition at 500 nM
STR118 (B11-Z8) [9] = biological target: STR118 (B11-Z8) (UniProt P61244); experiment: competition; settings: vs MAX/MAX 30 nM; Table 15 gives 79 for B11-Z8; vs MYC/MAX 170 nM
BLI2-Z [10] = experiment: competition; settings: MAX competition at 500 nM
BLI1-Z [11] = biological target: BLI1-Z (UniProt P61244); experiment: competition; settings: vs MAX; 50% at 500 nM in Table 16
B12-Z6 [12] = tested on: T2, B12-Z6; experiment: competition; settings: vs MAX
T2 sequence 1: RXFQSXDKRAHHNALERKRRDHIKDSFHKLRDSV
T2 sequence 2: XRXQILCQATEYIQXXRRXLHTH

BMYCs-Z [13] = biological target: BMYCs-Z (UniProt P61244); experiment: competition; settings: MAX competition at 500 nM
B10-Z6 [14] = biological target: B10-Z6 (UniProt P61244); experiment: competition; settings: vs MAX
B1-Z2 helical tetramer [15] = tested on: T3, B1-Z2 helical tetramer; experiment: competition; settings: helical tetramer vs MAX
T3 sequence 1: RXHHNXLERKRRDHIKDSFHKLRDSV
T3 sequence 2: XAQILCKATEYIQXMRRXN

B-Z2 = B-Z2 (UniProt P61244); experiment: EMSA; settings: apparent; Table 14 gives 22
B11-Z4 [16] = biological target: B11-Z4 (UniProt P61244); experiment: EMSA; settings: 95% CI 16-20; Table 14 gives 38
B7-Z4 = tested on: T4, B7-Z4; experiment: EMSA
T4 sequence 1: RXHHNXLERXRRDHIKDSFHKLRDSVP
T4 sequence 2: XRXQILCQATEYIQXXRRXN

BLI1-ZM5 = BLI1-ZM5 (UniProt P61244); experiment: EMSA
B11s-Z8 = B11s-Z8 (UniProt P61244); experiment: EMSA; settings: method inferred
B2-Z2 = tested on: T5, B2-Z2; experiment: EMSA
T5 sequence 1: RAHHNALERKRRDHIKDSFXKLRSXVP
T5 sequence 2: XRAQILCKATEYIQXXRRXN

BMADs-Z [17] = biological target: BMADs-Z (UniProt P61244); experiment: EMSA; settings: 25 nM sDBD; listed twice, second value 82% (possibly BMAD-Z)
BLI1-ZM4 [18] = biological target: BLI1-ZM4 (UniProt P61244); experiment: EMSA
B5-Z4 = tested on: T6, B5-Z4; experiment: EMSA; settings: 95% CI 98-126; Table 14 gives 118
T6 sequence 1: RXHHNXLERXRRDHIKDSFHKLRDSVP
T6 sequence 2: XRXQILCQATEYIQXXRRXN

B11-Z10 = B11-Z10 (UniProt P61244); experiment: EMSA; settings: method inferred
B-Z1 = B-Z1 (UniProt P61244); experiment: EMSA; settings: apparent; Table 14 gives 45
BLI1s-Z [19] = biological target: BLI1s-Z (UniProt P61244); experiment: EMSA; settings: 25 nM sDBD
B6-Z4 = tested on: T7, B6-Z4; experiment: EMSA; settings: 95% CI 49-66
T7 sequence 1: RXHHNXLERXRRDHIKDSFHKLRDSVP
T7 sequence 2: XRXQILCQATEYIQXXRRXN

B1-Z1 = tested on: T8, B1-Z1; experiment: EMSA
T8 sequence 1: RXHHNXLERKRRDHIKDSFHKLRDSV
T8 sequence 2: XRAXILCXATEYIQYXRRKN

B11-ZM4 [20] = experiment: EMSA
B11-Z80 (STR1180) = B11-Z80 (STR1180) (UniProt P61244); experiment: EMSA; settings: method inferred
B1-Z2 = tested on: T9, B1-Z2; experiment: EMSA; settings: 95% CI 22-29
T9 sequence 1: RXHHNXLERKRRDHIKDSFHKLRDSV
T9 sequence 2: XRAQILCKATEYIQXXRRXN

BLI1-ZL1 [21] = biological target: T1, BLI1-ZL1; experiment: EMSA; settings: 95% CI 14-35; Table 14 gives 19
B-ZL1 = B-ZL1 (UniProt P61244+P61244); experiment: EMSA; settings: listed as B-ZLI1; Table 14 gives 19
B2-Z4 = tested on: T10, B2-Z4; experiment: EMSA
T10 sequence 1: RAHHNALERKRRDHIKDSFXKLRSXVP
T10 sequence 2: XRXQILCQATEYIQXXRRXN

B4-Z = tested on: T11, B4-Z; experiment: EMSA; settings: apparent; Table 14 gives 25 (conflict)
T11 sequence 1: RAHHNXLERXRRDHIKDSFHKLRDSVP
T11 sequence 2: XRAQILCKATEYIQYXRRK

[22] = biological target: B (MAX basic helix alone) (UniProt P61244); experiment: EMSA; settings: basic helix alone
STR116 (B11-Z6) [23] = biological target: STR116 (B11-Z6) (UniProt P61244); experiment: EMSA; settings: 95% CI 13-16; B11-Z6 14 in Table 14
B-ZM4 [24] = biological target: B-ZM4 (UniProt P61244); experiment: EMSA
B-Z4 = B-Z4 (UniProt P61244); experiment: EMSA; settings: apparent; Table 14 gives 14
B8-Z = tested on: T12, B8-Z; experiment: EMSA; settings: apparent; Table 14 gives 672 (conflict)
T12 sequence 1: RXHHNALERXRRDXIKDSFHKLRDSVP
T12 sequence 2: XRAQILCKATEYIQYXRRK

[25] = tested on: T13, B1 (stapled MAX basic helix alone); experiment: EMSA; settings: stapled basic helix alone
T13 sequence: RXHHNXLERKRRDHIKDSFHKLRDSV

B11-Z81 = B11-Z81 (UniProt P61244); experiment: EMSA; settings: method inferred
B7-Z = tested on: T14, B7-Z; experiment: EMSA; settings: apparent; Table 14 gives 173
T14 sequence 1: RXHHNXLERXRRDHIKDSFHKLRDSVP
T14 sequence 2: XRAQILCKATEYIQYXRRK

B1-Z = tested on: T15, B1-Z; experiment: EMSA; settings: apparent; Table 14 gives 17
T15 sequence 1: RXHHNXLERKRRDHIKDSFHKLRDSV
T15 sequence 2: XRAQILCKATEYIQYXRRK

STR118 (B11-Z8) [26] = biological target: STR118 (B11-Z8) (UniProt P61244); experiment: EMSA; settings: 95% CI 3.0-4.0; B11-Z8 4.2 in Table 14
BLI2-Z [27] = experiment: EMSA; settings: 500 nM sDBD
BLI1-Z [28] = biological target: BLI1-Z (UniProt P61244); experiment: EMSA; settings: apparent; Table 14 gives 12
B11-Z70 = B11-Z70 (UniProt P61244); experiment: EMSA; settings: method inferred
B12-Z6 [29] = tested on: T2, B12-Z6; experiment: EMSA
[30] = biological target: B-Z (MAX-derived STR, cross-dimer) (UniProt P61244); experiment: EMSA; settings: 95% CI 13-19; also 16 in Tables 12, 14; 20 mM HEPES pH 8.0, 150 mM NaCl, 2 mM MgCl2
B1-Z4 = tested on: T16, B1-Z4; experiment: EMSA; settings: 95% CI 37-43
T16 sequence 1: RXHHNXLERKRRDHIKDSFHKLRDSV
T16 sequence 2: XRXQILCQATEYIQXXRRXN

B-ZM3 = B-ZM3 (UniProt P61244+P61244); experiment: EMSA; settings: 25 nM sDBD
B11-Z7 = B11-Z7 (UniProt P61244); experiment: EMSA
B-Z3 = B-Z3 (UniProt P61244); experiment: EMSA; settings: apparent; Table 14 gives 15
B8-Z4 = tested on: T17, B8-Z4; experiment: EMSA
T17 sequence 1: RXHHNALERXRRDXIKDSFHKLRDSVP
T17 sequence 2: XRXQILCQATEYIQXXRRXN

B3-Z = tested on: T18, B3-Z; experiment: EMSA; settings: apparent; Table 14 gives 76
T18 sequence 1: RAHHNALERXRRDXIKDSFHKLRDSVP
T18 sequence 2: XRAQILCKATEYIQYXRRK

[31] = biological target: B-Z5 (C-terminally truncated zipper) (UniProt P61244); experiment: EMSA; settings: apparent; Table 14 gives 88
B-Z helical tetramer = B-Z helical tetramer (UniProt P61244+P61244); experiment: EMSA
B2-Z = tested on: T19, B2-Z; experiment: EMSA; settings: apparent; Table 14 gives 15
T19 sequence 1: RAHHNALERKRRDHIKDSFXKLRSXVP
T19 sequence 2: XRAQILCKATEYIQYXRRK

BLI2-ZL1 = BLI2-ZL1 (UniProt P61244); experiment: EMSA; settings: 500 nM sDBD
BMYCs-Z [32] = biological target: BMYCs-Z (UniProt P61244); experiment: EMSA; settings: 25 nM sDBD; listed twice, second value 19% (possibly BMYC-Z)
B10-Z6 [33] = biological target: B10-Z6 (UniProt P61244); experiment: EMSA
B1-Z2 helical tetramer [34] = tested on: T3, B1-Z2 helical tetramer; experiment: EMSA

E-box probe showed an IC50 (B11-Z4 [1]) of 0.496 µM, an activity (BMAD-Z) of 66% and an activity (BMADs-Z [2]) of 24%. It also gave an IC50 (BLI1-ZM4 [3]) of 0.56 µM, an activity (BMYC-Z) of 9% and an activity (BLI1s-Z [4]) of 22%. It also gave an IC50 (B11-ZM4 [5]) of 0.56 µM, an IC50 (BLI1-ZL1 [6]) of 0.935 µM and an IC50 (STR116 (B11-Z6) [7]) of 0.4 µM. It also gave an activity (B-ZM4 [8]) of 41%, an IC50 (STR118 (B11-Z8) [9]) of 0.061 µM and an activity (BLI2-Z [10]) of 16%. For the same substance, the IC50 (BLI1-Z [11]) was 0.905 µM, the IC50 (B12-Z6 [12]) was 0.062 µM and the activity (BMYCs-Z [13]) was 7%. For the same substance, the IC50 (B10-Z6 [14]) was 0.326 µM, the IC50 (B1-Z2 helical tetramer [15]) was 1.1 µM and the Kd (B-Z2) was 0.022 µM. For the same substance, the Kd (B11-Z4 [16]) was 0.018 µM, the Kd (B7-Z4) was 0.234 µM and the Kd (BLI1-ZM5) was 0.0028 µM. The Kd (B11s-Z8) was 0.0065 µM, the Kd (B2-Z2) was 0.018 µM and the binding signal (BMADs-Z [17]) was 63 % bound. It also gave a Kd (BLI1-ZM4 [18]) of 0.01 µM, a Kd (B5-Z4) of 0.111 µM and a Kd (B11-Z10) of 0.0048 µM. The Kd (B-Z1) was 0.058 µM, the binding signal (BLI1s-Z [19]) was 50 % bound and the Kd (B6-Z4) was 0.057 µM. For the same substance, the Kd (B1-Z1) was 0.049 µM, the Kd (B11-ZM4 [20]) was 0.021 µM and the Kd (B11-Z80 (STR1180)) was 0.0027 µM. For the same substance, the Kd (B1-Z2) was 0.026 µM, the Kd (BLI1-ZL1 [21]) was 0.025 µM and the Kd (B-ZL1) was 0.02 µM. The Kd (B2-Z4) was 0.015 µM, the Kd (B4-Z) was 0.239 µM and the Kd [22] was greater than 2 µM. For the same substance, the Kd (STR116 (B11-Z6) [23]) was 0.014 µM, the Kd (B-ZM4 [24]) was 0.008 µM and the Kd (B-Z4) was 0.02 µM. The Kd (B8-Z) was 0.066 µM, the Kd [25] was greater than 2 µM and the Kd (B11-Z81) was greater than 0.1 µM. The Kd (B7-Z) was 0.169 µM, the Kd (B1-Z) was 0.018 µM and the Kd (STR118 (B11-Z8) [26]) was 0.0035 µM. For the same substance, the binding signal (BLI2-Z [27]) was 72 % bound, the Kd (BLI1-Z [28]) was 0.0083 µM and the Kd (B11-Z70) was 0.011 µM. It also gave a Kd (B12-Z6 [29]) of 0.008 µM, a Kd [30] of 0.016 µM and a Kd (B1-Z4) of 0.04 µM. The binding signal (B-ZM3) was 53 % bound, the Kd (B11-Z7) was 0.022 µM and the Kd (B-Z3) was 0.018 µM. The Kd (B8-Z4) was 0.164 µM, the Kd (B3-Z) was 0.077 µM and the Kd [31] was 0.098 µM. It also gave a Kd (B-Z helical tetramer) of 0.002 µM, a Kd (B2-Z) of 0.019 µM and a binding signal (BLI2-ZL1) of 54 % bound. The binding signal (BMYCs-Z [32]) was 27 % bound, the Kd (B10-Z6 [33]) was 0.016 µM and the Kd (B1-Z2 helical tetramer [34]) was 0.0018 µM.
